Experimental data as given in patent USRE40831.

Molecular target: hepatitis B virus surface antigen, ad antigen (Chemicon Cat. No. AG 850) (hepatitis B virus)
Assay: competitive ELISA

B1: Ab19.79.5, human monoclonal antibody secreted by hybridoma cell line 19.79.5 (ECACC Accession No. 96052168) (antibody, human IgG1, V domains shown)
VH: QVQLVESGGGVVQPGGSLRLSCAPSGFVFRSYGMHWVRQTPGKGLEWVSLIWHDGSNRFYADSVKGRFTISRDNSKNTLYLQMNSLRAEDTAMYFCARERLIAAPAAFDLWGQGTLVTVSS
VL: SYVLTQPPSVSVAPGKTARISCGGNNIGTKNVHWYQQKPGQAPVLVVYADSDRPSGIPERFSGSNSGNTATLTISRVEVGDEADYYCQVWDSVSYHVVFGGGTTLTVLG
Kd: 1.3 nM
